Series [1] has as its target type II flavin-containing monooxygenase from Janthinobacterium svalbardensis (Janthinobacterium svalbardensis PAMC27463). In words: crystal structure; sitting-drop vapor diffusion in the cold room (4-8 °C); 16 mg/mL JsFMO, glycerol 20%, PEG 8000 13%, 100 mM Bis-Tris pH 6.5; four protomers forming two dimers in the asymmetric unit; FAD bound, no NADP+.
Series [2] shares this target. Nature of the series: SEC; size exclusion chromatography of purified JsFMO, with a calibration curve (Figure S2). A general note: In gel filtration, larger molecules generally elute earlier.
Substrate in series [3]: NC(=O)C1=CN([C@@H]2O[C@H](COP(=O)(O)OP(=O)(O)OC[C@H]3O[C@@H](n4cnc5c(N)ncnc54)[C@H](OP(=O)(O)O)[C@@H]3O)[C@@H](O)[C@H]2O)C=CC1
In words: purified protein. It is filed as biochemical, Janthinobacterium svalbardense. Conditions: 100 mM Tris-HCl pH 7.5, 500 mM NaCl, 10% glycerol, 1 mM DTT, 5 μM FAD, room temperature, co-substrate concentration not given.

Substrate in series [4]: O=C1CC2C=CCC12
Nature of the series: purified protein. Format: biochemical, Janthinobacterium svalbardense. Conditions: 0.25 mM NADPH, 0.25-20 mM 1a, 100 mM Tris-HCl pH 7.5, 500 mM NaCl, 10% glycerol, 1 mM DTT, 5 μM FAD, room temperature.

Substrate in series [5]: NC(=O)C1=CN([C@@H]2O[C@H](COP(=O)(O)OP(=O)(O)OC[C@H]3O[C@@H](n4cnc5c(N)ncnc54)[C@H](O)[C@@H]3O)[C@@H](O)[C@H]2O)C=CC1
In words: purified protein. Format: biochemical, Janthinobacterium svalbardense. Conditions: 100 mM Tris-HCl pH 7.5, 500 mM NaCl, 10% glycerol, 1 mM DTT, 5 μM FAD, room temperature, co-substrate concentration not given.

The text below walks through data of article PMC10028610, “A Cold-Active Flavin-Dependent Monooxygenase from Janthinobacterium svalbardensis Unlocks Applications of Baeyer–Villiger Monooxygenases at Low Temperature” (ACS Catalysis, 2023).

As usually defined, the stoichiometry N is the number of molecules, sites or subunits per partner or assembly. In general, Km refers to the substrate concentration at which the rate is half of its maximum.

Consider “type II flavin-containing monooxygenase from Janthinobacterium svalbardensis (enzyme)”, for which the stoichiometry N in series [1] and in series [2] was 2 each time.

B1: JsFMO (Janthinobacterium svalbardense) (protein)
chain: MQTDSNPHDLAVAGILEQLEGCLRASDSTGAAQLFEPDGYWRDLVLFTWNLKTLEGREQIAAMLAAQLGAVQPVSIRIADGEHAVEAGGVLQSWITVETNVARGVGFIRIRDGKIWTLLTTMSELKGFEEAKGGRRPMGAEHGARTDRSSWLEQREQEAKELGYARQPYCVIIGGGQGGIALGARLRQLNVPTIIIEKNARPGDSWRKRYKSLCLHDPVWYDHMPYIPFPDNWPVFTPKDKVGDWLEMYTKVMELNYWGSTSCESASFDAASGEWTVQVLRDGQPVTLKPKQLVLATGMSGKANMPKFKGMDVFQGEQQHSSQHPGPDAYAGKKVVVVGANNSAHDICAALWEAGVDVTMVQRSSTHIVKSDSLMDLALGDLYSERALAAGMTTNKADLTFASIPYKILANFQKPVFKAIRERDADFYARLEERGFMLDFGDDDSGLFMKYLRRGSGYYIDVGASELVAEGKIKLKSGVGVQELKSHSIVLSDGTELPADLVVYATGYGSMNGWAADLISPEVANKVGKVWGLGSATTKDPGPWEGEQRNMWKPTQQQALWFHGGNLHQSRHYSQYLSLQLKARMEGLNTPVYGQQEVHHLS
notes: full-length, codon-optimized in pET-28a(+)-TEV, E. coli ArcticExpress (DE3), C-terminal His-tag (stated for crystal structure); homodimer; SnoaL-like N-terminal domain, C-terminal helix residues 567-586
On to B1, for which the Km was 14.4 ± 2.5 µM in series [3], 1050 ± 230 µM in series [4] and 78.5 ± 7.5 µM in series [5]. Besides, the kcat in series [3] was found to be 0.21 ± 0.1 s^–1; in series [4] it was 0.29 ± 0.01 s^–1; in series [5] it was 0.23 ± 0.1 s^–1.
